Test results from paper PMC11844742, “Structural basis of aquaporin-4 autoantibody binding in neuromyelitis optica” (Science Advances, 2025).
“And” between values parts separate entries of the source, which are not always exact repeats. Equal entries are not always repeated.

Assays:
Conditions in all cases: both partners purified
[1] = biological target: T1, human aquaporin-4 (AQP4) isoform M1, full length, tetramer in MSP1E3D1 lipid nanodiscs (human, UniProt P55087-1); test: cryo-EM 2D classification; AQP4 M1 in nanodiscs mixed with 30-fold molar excess of Fab186; severe orientation bias, no high-resolution map
T1 construct: aquaporin-4, human, isoform M1, full length (residues 1 to 323); synthesized gene in pPICZ; a thrombin cleavage site lies between the tags and the protein; Homo-tetramer embedded in a nanodisc (soybean polar lipids, MSP1E3D1); for BLI the MSP 1E3D1 was biotinylated; also called AQP4 M1; M1 tetramer; not shown: 8xHis, N-terminal, kept

[2] = biological target: T2, human aquaporin-4 (AQP4) isoform M1, full length, tetramer in detergent (human, UniProt P55087-1); test: cryo-EM structure; AQP4 in detergent, 18 uM, mixed with ~75 uM Fab186; ~12 uM AQP4 on grids; no symmetry imposed; 2.9 A
T2 construct: aquaporin-4, human, isoform M1, full length (residues 1 to 323); synthesized gene in pPICZ; The purification protocol says the N-terminal tag was cleaved by thrombin; also called AQP4 M1; AQP4 in detergent; source: Pichia pastoris X-33 (strain MG3), purified in DDM (Ni-NTA, thrombin cleavage, cobalt resin, SEC Superdex 200); not shown: 8xHis, N-terminal, cleaved

[3] = biological target: T1, human aquaporin-4 (AQP4) isoform M1, …; test: cryo-EM structure; AQP4 M1 in nanodiscs (0.3 uM) mixed with ~5-fold molar excess of Fab58; no symmetry imposed; 2.5 A

T1 sequence (P55087 whole entry, the tested form may be a part, canonical isoform): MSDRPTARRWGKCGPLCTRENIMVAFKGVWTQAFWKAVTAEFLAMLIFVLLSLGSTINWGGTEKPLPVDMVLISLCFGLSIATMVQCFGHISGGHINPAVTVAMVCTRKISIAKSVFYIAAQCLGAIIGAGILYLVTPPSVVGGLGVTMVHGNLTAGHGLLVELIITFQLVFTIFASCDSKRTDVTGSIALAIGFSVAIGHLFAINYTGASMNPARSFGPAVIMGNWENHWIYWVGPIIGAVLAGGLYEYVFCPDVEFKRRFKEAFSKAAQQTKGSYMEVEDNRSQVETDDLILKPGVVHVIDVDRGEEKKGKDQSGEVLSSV
T2 sequence (P55087 whole entry, the tested form may be a part, canonical isoform): as above

stoichiometry N [1] [Fab per AQP4 tetramer]	stoichiometry N [2]	stoichiometry N [3] [Fab per AQP4 tetramer]	Binder
4	≤ 4 Fab per AQP4 tetramer and 3 Fab per AQP4 tetramer		Fab186, Fab fragment of patient-derived NMO recombinant antibody rAb186 (Fab, V domains shown, heavy chain (HC) of Fab186 in the deposited model PDB 8V9D; light chain (LC) of Fab186 in the deposited model PDB 8V9D; also called rAB186 Fab; source: rAb186 IgG from Expi293F (MabSelect purified), papain cleavage (Pierce Fab kit), Fc removed with Protein A agarose) VH: QVQLQESGPGLVKPSQTLPLTCTVSGGYISSGSHQWGWIRQPAGKGLEWIGRIYTSGSTNYNPSLKSRVTISVDTSKNQFSLKLSSVTAADTAVYYCARVNYDLLTGRANFFDPWGQGTPVTVSS VL: EIVLTQSPGTLSLSPGERATLSCRASQSVSSRSVAWYQQKPGQAPRLLIYGASNRATGIPDRFSGSGSGTDFTLTISRLEPEDFVVFYCQQYGSSPLTFGGGTKVEIK
		1	Fab58, Fab fragment of patient-derived NMO recombinant antibody rAb58 (Fab, V domains shown, heavy chain (HC) of Fab58 in the deposited model PDB 8V91; light chain (LC) of Fab58 in the deposited model PDB 8V91; also called rAB58 Fab; source: rAb58 IgG from Expi293F (MabSelect purified), papain cleavage (Pierce Fab kit), Fc removed with Protein A agarose) VH: QVQLVESGGGLVQPGGSLRLSCAASGFTFRGYAMNWVRQAPGKGLEWVASISGSGSITQYADSAKGRFTITRDNSKSTLYAHVSSLRADDTAVYYCAKGDYVFDYWGQGTLVTVSS VL: DIQMTQSPSALSASVGDTVTITCRASQSIRSWLAWYQQKPGKAPKLLIYKASDLQSGVPSRFSGSGSGTDFTLTISGLQPDDFATYYCQHYNSYPYTFGQGTKVEIR
